Patent publication US20180215801A1 (BOARD OF TRUSTEES OF MICHIGAN STATE UNIVERSITY, published 2018)

Experiments:
[1] = biological target: T1, Fc-free Cryptic (human Cryptic extracellular domain after removal of the Fc with TEV protease) (human, UniProt P0CG37 26-155); assay: SPR competition: 1 nM Activin A preincubated with Fc-free Cryptic, binding to captured ACTRIIA-Fc is blocked
T1 construct: Same conflict about the C-terminal limit as for Cryptic-Fc (155 vs 167)
Method: (§1) Receptor-ligand binding affinities were determined by SPR using the Biacore 2000. Anti-human IgG (Fc) antibody was immobilized onto four channels of a CM5 chip using amine coupling chemistry. […] A reference channel was monitored to account for nonspecific binding, drift, and bulk shifts.

[2] = biological target: T2, ALK4-Fc (human ALK4 extracellular domain fused to human IgG1 Fc) (human, UniProt P36896 24-110); assay: SPR (Biacore 2000), Fc fusion captured on anti-human Fc chip, ligand injected, 1:1 Langmuir fit
T2 construct: range 1-110; Captured on an anti-human Fc chip in SPR; also called ALK4-hIgg-Fc; human ALK4-Fc
T2 sequence (P36896 other isoform, or with tags, fused parts or gaps limits assumed, form in doubt): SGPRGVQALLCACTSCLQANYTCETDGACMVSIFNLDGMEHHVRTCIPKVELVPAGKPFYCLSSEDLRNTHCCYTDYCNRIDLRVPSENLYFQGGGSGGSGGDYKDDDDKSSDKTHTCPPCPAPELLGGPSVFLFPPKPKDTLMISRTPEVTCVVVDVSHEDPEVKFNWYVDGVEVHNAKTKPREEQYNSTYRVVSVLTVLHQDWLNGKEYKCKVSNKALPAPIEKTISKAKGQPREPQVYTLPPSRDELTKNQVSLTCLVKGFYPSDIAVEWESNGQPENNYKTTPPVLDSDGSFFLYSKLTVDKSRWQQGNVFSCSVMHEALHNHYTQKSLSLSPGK
Method: (§2) Receptor-ligand binding affinities were determined by SPR using the Biacore 2000. Anti-human IgG (Fc) antibody was immobilized onto four channels of a CM5 chip using amine coupling chemistry. […] A reference channel was monitored to account for nonspecific binding, drift, and bulk shifts. […] After each binding cycle, the antibody surface was regenerated to base line. All experiments were carried out at 25° C. HBS-EPS buffer (0.01 M HEPES, […], 3 mM EDTA, 0.005% (v/v) Tween 20, pH 7.4) containing 0.1% BSA was used as running buffer. […] Sensograms were analyzed by double referencing. To obtain kinetic rate constants, the processed data was fitted to 1:1 Langmuir interaction model with mass transport limitation using Scrubber, Clamp or BiaEvaluation software. The equilibrium binding constant Kd was determined by calculating the ratio of binding rate constants kd/kₐ.

[3] = biological target: T2, ALK4-Fc (human ALK4 extracellular …); assay: SPR, ALK4-Fc captured, Activin A series preincubated with excess Fc-free Cryptic injected
Method: as §2

[4] = biological target: T1, Fc-free Cryptic (human Cryptic …); assay: SPR competition: 10 nM Activin B preincubated with Fc-free Cryptic, binding to captured ACTRIIA-Fc is blocked
Method: as §1

B1: Activin A (ligand)
chain: GLECDGKVNICCKKQFFVSFKDIGWNDWIIAPSGYHANYCEGECPSHIAGTSGSSLSFHSTVINHYRMRGHSPFANLKSCCVPTKLRPMSMLYYDDGQNIIKKDIQNMIVEECGCS
notes: also called homodimer of inhibin beta A subunits
Q: Does B1 bind [1]?
A: binds

Q: What about the Kd [2] of the same binder?
A: 4 nM

Q: What about the koff [2] of the same binder?
A: 0.0018 s⁻¹

Q: And the kon [2]?
A: 450000 M⁻¹ s⁻¹

B2: Activin A/Cryptic complex (Activin A preincubated with excess Fc-free Cryptic) (other)
chain 1: GLECDGKVNICCKKQFFVSFKDIGWNDWIIAPSGYHANYCEGECPSHIAGTSGSSLSFHSTVINHYRMRGHSPFANLKSCCVPTKLRPMSMLYYDDGQNIIKKDIQNMIVEECGCS
chain 2: not shown
Q: With B2 as the binder, how does the Kd [3] read?
A: 2.6 nM

Q: And the koff [3]?
A: 0.0016 s⁻¹

Q: What about the kon [3] of the same binder?
A: 620000 M⁻¹ s⁻¹

B3: Activin B (ligand, UniProt P09529 293-407, looked up)
chain: GLECDGRTNLCCRQQFFIDFRLIGWNDWIIAPTGYYGNYCEGSCPAYLAGVPGSASSFHTAVVNQYRMRGLNPGTVNSCCIPTKLSTMSMLYFDDEYNIVKRDVPNMIVEECGCA
notes: also called recombinant Activin B
Q: Does B3 bind [4]?
A: binds
